T1: SYNJ2BP, P57105
T1 sequence (P57105 8-110, limits assumed, looked up): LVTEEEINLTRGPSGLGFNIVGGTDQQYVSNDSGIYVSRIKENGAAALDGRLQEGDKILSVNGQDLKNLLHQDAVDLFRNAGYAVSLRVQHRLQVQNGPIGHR

T2: GRIP1_3, Q9Y3R0
T2 sequence (Q9Y3R0 247-346, limits assumed, looked up): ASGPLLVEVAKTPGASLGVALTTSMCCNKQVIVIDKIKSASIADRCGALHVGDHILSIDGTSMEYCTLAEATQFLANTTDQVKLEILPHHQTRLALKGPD

T3: GRIP1_5, Q9Y3R0
T3 sequence (Q9Y3R0 568-668, limits assumed, looked up): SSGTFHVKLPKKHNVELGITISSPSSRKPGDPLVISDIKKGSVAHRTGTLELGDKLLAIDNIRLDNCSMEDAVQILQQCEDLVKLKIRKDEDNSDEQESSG

T4: MPP2, Q14168
T4 sequence (Q14168 180-250, limits assumed, looked up): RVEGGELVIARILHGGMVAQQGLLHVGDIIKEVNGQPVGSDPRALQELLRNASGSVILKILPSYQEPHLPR

T5: DLG3_2, Q92796
T5 sequence (Q92796 221-321, limits assumed, looked up): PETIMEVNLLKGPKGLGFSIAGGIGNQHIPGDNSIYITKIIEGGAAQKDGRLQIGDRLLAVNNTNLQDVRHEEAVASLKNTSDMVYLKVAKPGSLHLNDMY

T6: APBA1_2, Q02410
T6 sequence (Q02410 742-832, limits assumed, looked up): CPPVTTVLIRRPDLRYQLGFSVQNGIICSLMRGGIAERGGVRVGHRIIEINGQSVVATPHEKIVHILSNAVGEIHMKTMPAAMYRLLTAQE

T7: RHPN1, Q8TCX5
T7 sequence (Q8TCX5 508-602, limits assumed, looked up): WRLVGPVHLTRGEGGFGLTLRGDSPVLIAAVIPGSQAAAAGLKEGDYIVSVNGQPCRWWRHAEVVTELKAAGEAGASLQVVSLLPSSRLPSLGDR

T8: APBA1_1, Q02410
T8 sequence (Q02410 651-752, limits assumed, looked up): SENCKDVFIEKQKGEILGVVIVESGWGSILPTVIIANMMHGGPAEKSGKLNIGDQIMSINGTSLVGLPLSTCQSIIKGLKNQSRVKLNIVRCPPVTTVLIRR

T9: LNX2_2, Q8N448
T9 sequence (Q8N448 334-432, limits assumed, looked up): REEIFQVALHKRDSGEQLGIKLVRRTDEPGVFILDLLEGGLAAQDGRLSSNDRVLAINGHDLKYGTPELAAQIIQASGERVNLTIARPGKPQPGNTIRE

T10: NHERF3_1, Q5T2W1
T10 sequence (Q5T2W1 4-100, limits assumed, looked up): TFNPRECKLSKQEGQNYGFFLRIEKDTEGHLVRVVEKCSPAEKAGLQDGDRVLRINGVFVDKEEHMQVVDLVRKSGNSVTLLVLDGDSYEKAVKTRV

T11: APBA2_1, Q99767
T11 sequence (Q99767 563-664, limits assumed, looked up): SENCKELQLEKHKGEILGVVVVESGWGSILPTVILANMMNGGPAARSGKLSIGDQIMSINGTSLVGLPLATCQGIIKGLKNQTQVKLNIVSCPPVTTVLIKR

T12: NHERF3_3, Q5T2W1
T12 sequence (Q5T2W1 238-333, limits assumed, looked up): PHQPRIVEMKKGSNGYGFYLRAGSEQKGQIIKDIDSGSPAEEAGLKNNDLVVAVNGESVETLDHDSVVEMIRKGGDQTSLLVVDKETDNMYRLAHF


molecular target: GRIP2_5, Q9C0E4; experiment: holdup assay; set-up: key: below the threshold = too weak to quantify, mostly under pKd 3.1 to 4; conditions: plain residues with an end cap or a label only (N-terminal biotin on a linker: ado-ado)
Sequence (Q9C0E4 544-642): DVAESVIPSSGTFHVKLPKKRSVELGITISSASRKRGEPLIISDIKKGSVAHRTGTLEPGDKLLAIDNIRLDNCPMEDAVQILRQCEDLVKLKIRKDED

Row | Binder | pKd
1 | PLPPEEESWV [GAS2L2, Q8NHY3] | below the threshold
2 | STYCDYTIEI [FAM71C, Q8NEG0] | below the threshold

molecular target: T1, SYNJ2BP, P57105; experiment: holdup assay; set-up: key: below the threshold = too weak to quantify, mostly under pKd 3.1 to 4; conditions: plain residues with an end cap or a label only (N-terminal biotin on a linker: ado-ado)

Row | Binder | pKd
3 | PLPPEEESWV [GAS2L2, Q8NHY3] | 4.98
4 | STYCDYTIEI [FAM71C, Q8NEG0] | below the threshold

molecular target: T2, GRIP1_3, Q9Y3R0; experiment: holdup assay; set-up: key: below the threshold = too weak to quantify, mostly under pKd 3.1 to 4; conditions: plain residues with an end cap or a label only (N-terminal biotin on a linker: ado-ado)

Row | Binder | pKd
5 | PLPPEEESWV [GAS2L2, Q8NHY3] | below the threshold
6 | STYCDYTIEI [FAM71C, Q8NEG0] | below the threshold

molecular target: NOS1, P29475; experiment: holdup assay; set-up: key: below the threshold = too weak to quantify, mostly under pKd 3.1 to 4; conditions: plain residues with an end cap or a label only (N-terminal biotin on a linker: ado-ado)
Sequence (P29475 9-101): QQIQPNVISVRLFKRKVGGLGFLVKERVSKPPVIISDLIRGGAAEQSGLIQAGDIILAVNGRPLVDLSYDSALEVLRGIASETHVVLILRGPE

Row | Binder | pKd
7 | PLPPEEESWV [GAS2L2, Q8NHY3] | 4.06
8 | STYCDYTIEI [FAM71C, Q8NEG0] | 3.62

molecular target: T3, GRIP1_5, Q9Y3R0; experiment: holdup assay; set-up: key: below the threshold = too weak to quantify, mostly under pKd 3.1 to 4; conditions: plain residues with an end cap or a label only (N-terminal biotin on a linker: ado-ado)

Row | Binder | pKd
9 | PLPPEEESWV [GAS2L2, Q8NHY3] | below the threshold
10 | STYCDYTIEI [FAM71C, Q8NEG0] | below the threshold

molecular target: PDLIM1, O00151; experiment: holdup assay; set-up: key: below the threshold = too weak to quantify, mostly under pKd 3.1 to 4; conditions: plain residues with an end cap or a label only (N-terminal biotin on a linker: ado-ado)
Sequence (O00151 1-87): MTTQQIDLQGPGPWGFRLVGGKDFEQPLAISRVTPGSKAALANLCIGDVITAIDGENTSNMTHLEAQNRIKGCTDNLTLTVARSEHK

Row | Binder | pKd
11 | PLPPEEESWV [GAS2L2, Q8NHY3] | 4.22
12 | STYCDYTIEI [FAM71C, Q8NEG0] | below the threshold

molecular target: T4, MPP2, Q14168; experiment: holdup assay; set-up: key: below the threshold = too weak to quantify, mostly under pKd 3.1 to 4; conditions: plain residues with an end cap or a label only (N-terminal biotin on a linker: ado-ado)

Row | Binder | pKd
13 | PLPPEEESWV [GAS2L2, Q8NHY3] | below the threshold
14 | STYCDYTIEI [FAM71C, Q8NEG0] | below the threshold

molecular target: MAGI1_1, Q96QZ7; experiment: holdup assay; set-up: key: below the threshold = too weak to quantify, mostly under pKd 3.1 to 4; conditions: plain residues with an end cap or a label only (N-terminal biotin on a linker: ado-ado)
Sequence (Q96QZ7 1-106): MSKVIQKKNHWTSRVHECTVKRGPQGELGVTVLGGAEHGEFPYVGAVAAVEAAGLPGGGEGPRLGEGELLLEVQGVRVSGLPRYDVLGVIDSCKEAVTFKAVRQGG

Row | Binder | pKd
15 | PLPPEEESWV [GAS2L2, Q8NHY3] | below the threshold
16 | STYCDYTIEI [FAM71C, Q8NEG0] | below the threshold

molecular target: FRMPD3, Q5JV73; experiment: holdup assay; set-up: key: below the threshold = too weak to quantify, mostly under pKd 3.1 to 4; conditions: plain residues with an end cap or a label only (N-terminal biotin on a linker: ado-ado)
Sequence (Q5JV73 12-100): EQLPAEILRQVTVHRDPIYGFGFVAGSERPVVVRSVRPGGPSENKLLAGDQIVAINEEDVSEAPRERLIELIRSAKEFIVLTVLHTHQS

Row | Binder | pKd
17 | PLPPEEESWV [GAS2L2, Q8NHY3] | 3.72
18 | STYCDYTIEI [FAM71C, Q8NEG0] | below the threshold

molecular target: GRID2IP_2, A4D2P6; experiment: holdup assay; set-up: key: below the threshold = too weak to quantify, mostly under pKd 3.1 to 4; conditions: plain residues with an end cap or a label only (N-terminal biotin on a linker: ado-ado)
Sequence (A4D2P6 272-370): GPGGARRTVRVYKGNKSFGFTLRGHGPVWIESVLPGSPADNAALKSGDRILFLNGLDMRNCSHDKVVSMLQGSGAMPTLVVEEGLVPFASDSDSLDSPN

Row | Binder | pKd
19 | PLPPEEESWV [GAS2L2, Q8NHY3] | 4.06
20 | STYCDYTIEI [FAM71C, Q8NEG0] | below the threshold

molecular target: T5, DLG3_2, Q92796; experiment: holdup assay; set-up: key: below the threshold = too weak to quantify, mostly under pKd 3.1 to 4; conditions: plain residues with an end cap or a label only (N-terminal biotin on a linker: ado-ado)

Row | Binder | pKd
21 | PLPPEEESWV [GAS2L2, Q8NHY3] | 4.64
22 | STYCDYTIEI [FAM71C, Q8NEG0] | below the threshold

molecular target: HTRA1, Q92743; experiment: holdup assay; set-up: key: below the threshold = too weak to quantify, mostly under pKd 3.1 to 4; conditions: plain residues with an end cap or a label only (N-terminal biotin on a linker: ado-ado)
Sequence (Q92743 360-477): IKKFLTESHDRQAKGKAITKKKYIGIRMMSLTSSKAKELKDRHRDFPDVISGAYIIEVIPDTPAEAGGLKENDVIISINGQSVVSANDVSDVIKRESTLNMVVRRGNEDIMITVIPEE

Row | Binder | pKd
23 | PLPPEEESWV [GAS2L2, Q8NHY3] | 5.14
24 | STYCDYTIEI [FAM71C, Q8NEG0] | 5.38

molecular target: T6, APBA1_2, Q02410; experiment: holdup assay; set-up: key: below the threshold = too weak to quantify, mostly under pKd 3.1 to 4; conditions: plain residues with an end cap or a label only (N-terminal biotin on a linker: ado-ado)

Row | Binder | pKd
25 | PLPPEEESWV [GAS2L2, Q8NHY3] | 5.02
26 | STYCDYTIEI [FAM71C, Q8NEG0] | below the threshold

molecular target: T7, RHPN1, Q8TCX5; experiment: holdup assay; set-up: key: below the threshold = too weak to quantify, mostly under pKd 3.1 to 4; conditions: plain residues with an end cap or a label only (N-terminal biotin on a linker: ado-ado)

Row | Binder | pKd
27 | PLPPEEESWV [GAS2L2, Q8NHY3] | 4.43
28 | STYCDYTIEI [FAM71C, Q8NEG0] | 3.47

molecular target: IL16_3, Q14005; experiment: holdup assay; set-up: key: below the threshold = too weak to quantify, mostly under pKd 3.1 to 4; conditions: plain residues with an end cap or a label only (N-terminal biotin on a linker: ado-ado)
Sequence (Q14005 1107-1207): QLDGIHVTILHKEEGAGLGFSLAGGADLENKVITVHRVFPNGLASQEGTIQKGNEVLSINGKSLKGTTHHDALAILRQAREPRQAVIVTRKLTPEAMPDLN

Row | Binder | pKd
29 | PLPPEEESWV [GAS2L2, Q8NHY3] | below the threshold
30 | STYCDYTIEI [FAM71C, Q8NEG0] | below the threshold

molecular target: T8, APBA1_1, Q02410; experiment: holdup assay; set-up: key: below the threshold = too weak to quantify, mostly under pKd 3.1 to 4; conditions: plain residues with an end cap or a label only (N-terminal biotin on a linker: ado-ado)

Row | Binder | pKd
31 | PLPPEEESWV [GAS2L2, Q8NHY3] | below the threshold
32 | STYCDYTIEI [FAM71C, Q8NEG0] | below the threshold

molecular target: T9, LNX2_2, Q8N448; experiment: holdup assay; set-up: key: below the threshold = too weak to quantify, mostly under pKd 3.1 to 4; conditions: plain residues with an end cap or a label only (N-terminal biotin on a linker: ado-ado)

Row | Binder | pKd
33 | PLPPEEESWV [GAS2L2, Q8NHY3] | 5.07
34 | STYCDYTIEI [FAM71C, Q8NEG0] | 4.96

molecular target: GRIP2_4, Q9C0E4; experiment: holdup assay; set-up: key: below the threshold = too weak to quantify, mostly under pKd 3.1 to 4; conditions: plain residues with an end cap or a label only (N-terminal biotin on a linker: ado-ado)
Sequence (Q9C0E4 446-548): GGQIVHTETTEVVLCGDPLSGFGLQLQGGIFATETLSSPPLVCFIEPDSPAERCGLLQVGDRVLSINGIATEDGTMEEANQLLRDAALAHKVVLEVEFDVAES

Row | Binder | pKd
35 | PLPPEEESWV [GAS2L2, Q8NHY3] | below the threshold
36 | STYCDYTIEI [FAM71C, Q8NEG0] | below the threshold

molecular target: DLG4_1, P78352; experiment: holdup assay; set-up: key: below the threshold = too weak to quantify, mostly under pKd 3.1 to 4; conditions: plain residues with an end cap or a label only (N-terminal biotin on a linker: ado-ado)
Sequence (P78352 62-152): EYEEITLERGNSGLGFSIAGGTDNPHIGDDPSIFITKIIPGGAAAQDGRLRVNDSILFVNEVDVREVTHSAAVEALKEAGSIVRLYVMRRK

Row | Binder | pKd
37 | PLPPEEESWV [GAS2L2, Q8NHY3] | 4.03
38 | STYCDYTIEI [FAM71C, Q8NEG0] | below the threshold

molecular target: T10, NHERF3_1, Q5T2W1; experiment: holdup assay; set-up: key: below the threshold = too weak to quantify, mostly under pKd 3.1 to 4; conditions: plain residues with an end cap or a label only (N-terminal biotin on a linker: ado-ado)

Row | Binder | pKd
39 | PLPPEEESWV [GAS2L2, Q8NHY3] | 4.86
40 | STYCDYTIEI [FAM71C, Q8NEG0] | below the threshold

molecular target: DLG2_3, Q15700; experiment: holdup assay; set-up: key: below the threshold = too weak to quantify, mostly under pKd 3.1 to 4; conditions: plain residues with an end cap or a label only (N-terminal biotin on a linker: ado-ado)

Row | Binder | pKd
41 | PLPPEEESWV [GAS2L2, Q8NHY3] | 3.86
42 | STYCDYTIEI [FAM71C, Q8NEG0] | below the threshold

molecular target: PICK1, Q9NRD5; experiment: holdup assay; set-up: key: below the threshold = too weak to quantify, mostly under pKd 3.1 to 4; conditions: plain residues with an end cap or a label only (N-terminal biotin on a linker: ado-ado)
Sequence (Q9NRD5 17-115): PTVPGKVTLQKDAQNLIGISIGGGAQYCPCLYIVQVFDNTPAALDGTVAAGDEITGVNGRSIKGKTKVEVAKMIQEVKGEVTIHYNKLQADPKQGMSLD

Row | Binder | pKd
43 | PLPPEEESWV [GAS2L2, Q8NHY3] | below the threshold
44 | STYCDYTIEI [FAM71C, Q8NEG0] | below the threshold

molecular target: T11, APBA2_1, Q99767; experiment: holdup assay; set-up: key: below the threshold = too weak to quantify, mostly under pKd 3.1 to 4; conditions: plain residues with an end cap or a label only (N-terminal biotin on a linker: ado-ado)

Row | Binder | pKd
45 | PLPPEEESWV [GAS2L2, Q8NHY3] | below the threshold
46 | STYCDYTIEI [FAM71C, Q8NEG0] | below the threshold

molecular target: Inadl_8, Q8NI35; experiment: holdup assay; set-up: key: below the threshold = too weak to quantify, mostly under pKd 3.1 to 4; conditions: plain residues with an end cap or a label only (N-terminal biotin on a linker: ado-ado)
Sequence (Q8NI35 1425-1530): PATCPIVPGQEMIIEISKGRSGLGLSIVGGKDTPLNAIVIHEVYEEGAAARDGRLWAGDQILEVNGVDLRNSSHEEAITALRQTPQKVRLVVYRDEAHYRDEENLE

Row | Binder | pKd
47 | PLPPEEESWV [GAS2L2, Q8NHY3] | 3.8
48 | STYCDYTIEI [FAM71C, Q8NEG0] | below the threshold

molecular target: T12, NHERF3_3, Q5T2W1; experiment: holdup assay; set-up: key: below the threshold = too weak to quantify, mostly under pKd 3.1 to 4; conditions: plain residues with an end cap or a label only (N-terminal biotin on a linker: ado-ado)

Row | Binder | pKd
49 | PLPPEEESWV [GAS2L2, Q8NHY3] | below the threshold
50 | STYCDYTIEI [FAM71C, Q8NEG0] | below the threshold

molecular target: DLG4_2, P78352; experiment: holdup assay; set-up: key: below the threshold = too weak to quantify, mostly under pKd 3.1 to 4; conditions: plain residues with an end cap or a label only (N-terminal biotin on a linker: ado-ado)
Sequence (P78352 155-259): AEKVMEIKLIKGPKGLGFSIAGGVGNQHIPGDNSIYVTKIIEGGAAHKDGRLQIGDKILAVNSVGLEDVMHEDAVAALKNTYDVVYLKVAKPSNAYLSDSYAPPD

Row | Binder | pKd
51 | PLPPEEESWV [GAS2L2, Q8NHY3] | 4.69
52 | STYCDYTIEI [FAM71C, Q8NEG0] | below the threshold

From paper PMC9482650, “Quantitative fragmentomics allow affinity mapping of interactomes” (Nature Communications, 2022)
